Experimental data as given in US20240343814A1.
Positions count from the first letter of the chain named.

B1: VRDN-02521 (antibody, V domains shown)
VH: EVQLVQSGGGLVKPGGSLRLSCAASGFTFSSFAMHWVRQAPGKGLEWISVIDTRGATYYADSVKGRFTISRDNAKNSLYLQMNSLRAEDTAVYYCARLGNHYYGMDVWGQGTTVTVSS
VL: EIVLTQSPGTLSVSPGERATLSCRASQSIGSSLHWYQQKPGQAPRLLIKYASQSLSGIPDRFSGSGSGTDFTLTISRLEPEDFAVYYCHQSSRLPHTFGQGTKVEIK
B2: VRDN-02522 (antibody, V domains shown)
VH: B1 VH with H101F, Y102H
VL: B1 VL
B3: VRDN-02541 (antibody, V domains shown)
VH: B1 VH with H101F
VL: B1 VL with S52H
B4: VRDN-02531 (antibody, V domains shown)
VH: B1 VH with H101F
VL: B1 VL with Q27H
B5: VRDN-02547 (antibody, V domains shown)
VH: B1 VH with H101F
VL: B1 VL with S91H
B6: VRDN-02502 (antibody, V domains shown)
VH: B1 VH with F27H, H101F
VL: B1 VL
B7: VRDN-02548 (antibody, V domains shown)
VH: B1 VH with H101F
VL: B1 VL with S92H
B8: VRDN-02504 (antibody, V domains shown)
VH: B1 VH with F29H, H101F
VL: B1 VL
B9: VRDN-02540 (antibody, V domains shown)
VH: B1 VH with H101F
VL: B1 VL with A51H
B10: VRDN-02533 (antibody, V domains shown)
VH: B1 VH with H101F
VL: B1 VL with I29H
B11: VRDN-02536 (antibody, V domains shown)
VH: B1 VH with H101F
VL: B1 VL with S32H
B12: VRDN-02525 (antibody, V domains shown)
VH: B1 VH with H101F, M105H
VL: B1 VL
B13: VRDN-02534 (antibody, V domains shown)
VH: B1 VH with H101F
VL: B1 VL with G30H
B14: VRDN-02523 (antibody, V domains shown)
VH: B1 VH with H101F, Y103H
VL: B1 VL
B15: VRDN-02546 (antibody, V domains shown)
VH: B1 VH with H101F
VL: B1 VL with Q90H
B16: VRDN-02545 (antibody, V domains shown)
VH: B1 VH with H101F
VL: B1 VL with S56H
B17: VRDN-02544 (antibody, V domains shown)
VH: B1 VH with H101F
VL: B1 VL with L55H
B18: VRDN-02503 (antibody, V domains shown)
VH: B1 VH with T28H, H101F
VL: B1 VL
B19: VRDN-02542 (antibody, V domains shown)
VH: B1 VH with H101F
VL: B1 VL with Q53H
B20: VRDN-02532 (antibody, V domains shown)
VH: B1 VH with H101F
VL: B1 VL with S28H
B21: VRDN-02535 (antibody, V domains shown)
VH: B1 VH with H101F
VL: B1 VL with S31H
B22: VRDN-02527 (antibody, V domains shown)
VH: B1 VH with H101F, V107H
VL: B1 VL
B23: VRDN-02524 (antibody, V domains shown)
VH: B1 VH with H101F, G104H
VL: B1 VL
B24: VRDN-02529 (antibody, V domains shown)
VH: B1 VH with H101F
VL: B1 VL with A25H
B25: VRDN-02528 (antibody, V domains shown)
VH: B1 VH with H101F
VL: B1 VL with R24H
B26: VRDN-02530 (antibody, V domains shown)
VH: B1 VH with H101F
VL: B1 VL with S26H
B27: VRDN-02537 (antibody, V domains shown)
VH: B1 VH with H101F
VL: B1 VL with L33H
B28: VRDN-02543 (antibody, V domains shown)
VH: B1 VH with H101F
VL: B1 VL with S54H
B29: VRDN-02549 (antibody, V domains shown)
VH: B1 VH with H101F
VL: B1 VL with R93H
B30: VRDN-02539 (antibody, V domains shown)
VH: B1 VH with H101F
VL: B1 VL with Y50H

target: Recombinant human his-tagged IGF 1R extracellular domain protein (human) (UniProt P08069); assay: SPR, captured IgG, IGF-1R ECD-his analyte, dissociation pH 6

| Binder | Kd [nM] | koff [s⁻¹] | kon [M⁻¹ s⁻¹] |
| --- | --- | --- | --- |
| B1 | 0.05 | 1e-06 | 20000 |
| B2 | 0.0376 | 1e-06 | 26600 |
| B3 | 0.028 | 1e-06 | 35700 |
| B4 | 0.0319 | 1e-06 | 31300 |
| B5 | 0.0251 | 1e-06 | 39800 |
| B6 | 0.0375 | 1e-06 | 26700 |
| B7 | 0.0251 | 1e-06 | 39800 |
| B8 | 0.0242 | 1e-06 | 41300 |
| B9 | 0.0662 | 1e-06 | 15100 |
| B10 | 0.0493 | 1e-06 | 20300 |
| B11 | 0.0228 | 1e-06 | 43900 |
| B12 | 4.58 | 0.000147 | 32100 |
| B13 | 0.0393 | 1.17e-06 | 29800 |
| B14 | 0.036 | 1e-06 | 27800 |
| B15 | 0.0259 | 1e-06 | 38600 |
| B16 | 0.027 | 1e-06 | 37000 |
| B17 | 0.0275 | 1e-06 | 36300 |
| B18 | 0.0262 | 1e-06 | 38100 |
| B19 | 0.0389 | 1e-06 | 25700 |
| B20 | 0.0292 | 1e-06 | 34300 |
| B21 | 0.0273 | 1e-06 | 36600 |
| B22 | 0.0258 | 1e-06 | 38800 |
| B23 | 1.22 | 4.66e-05 | 38300 |
| B24 | 0.0541 | 1e-06 | 18500 |
| B25 | 0.0246 | 1e-06 | 40600 |
| B26 | 0.029 | 1e-06 | 34500 |
| B27 | 0.036 | 1e-06 | 27800 |
| B28 | 0.025 | 1e-06 | 40000 |
| B29 | 0.0251 | 1e-06 | 39800 |
| B30 | 21.6 | 0.000584 | 27000 |

target: Recombinant human his-tagged IGF 1R extracellular domain protein (human) (UniProt P08069); assay: SPR, captured IgG, IGF-1R ECD-his analyte, dissociation pH 7.4

| Binder | Kd [nM] | koff [s⁻¹] | kon [M⁻¹ s⁻¹] |
| --- | --- | --- | --- |
| B1 | 1.48 | 7.2e-05 | 48500 |
| B2 | 0.37 | 1.73e-05 | 46700 |
| B3 | 0.00654 | 1e-06 | 153000 |
| B4 | 0.85 | 2.1e-05 | 24700 |
| B5 | 0.0084 | 1e-06 | 119000 |
| B6 | 0.0244 | 4.1e-06 | 168000 |
| B7 | 0.721 | 8.72e-05 | 121000 |
| B8 | 5.08 | 0.000186 | 36600 |
| B9 | 0.434 | 4.25e-05 | 97900 |
| B10 | 0.519 | 4.45e-05 | 85700 |
| B11 | 0.00746 | 1e-06 | 134000 |
| B12 | 0.00758 | 1e-06 | 132000 |
| B13 | 0.0051 | 1e-06 | 196000 |
| B14 | 0.717 | 2.74e-05 | 38200 |
| B15 | 0.491 | 5.94e-05 | 121000 |
| B16 | 0.622 | 3.03e-05 | 48700 |
| B17 | 0.483 | 6.18e-05 | 128000 |
| B18 | 1.53 | 0.000161 | 105000 |
| B19 | 0.00535 | 1e-06 | 187000 |
| B20 | 0.316 | 4.08e-05 | 129000 |
| B21 | 0.363 | 4.07e-05 | 112000 |
| B22 | 0.225 | 2.16e-05 | 95900 |
| B23 | 0.00752 | 1e-06 | 133000 |
| B24 | 3.8 | 0.000103 | 27100 |
| B25 | 0.252 | 3.55e-05 | 141000 |
| B26 | 0.102 | 1.53e-05 | 150000 |
| B27 | 0.802 | 7.16e-05 | 89300 |
| B28 | 0.391 | 4.38e-05 | 112000 |
| B29 | 0.327 | 3.89e-05 | 119000 |
| B30 | 0.00588 | 1e-06 | 170000 |
